Measured values from PMC4609117.

How the values were obtained:
[1] = molecular target: T1, Ms0535 (GntR family, FadR/VanR-like regulator) (Mycobacterium smegmatis mc2 155, UniProt A0QPV8 1-212); experiment: EMSA; 0-4 uM protein; only one shifted band; conditions: protein: recombinant; tags: His-tag (pET28a); chain copies: 2; blunt
[2] = molecular target: T1, Ms0535 (GntR family, FadR/VanR-like …); experiment: EMSA; 0-4 uM protein; conditions: protein: recombinant; tags: His-tag (pET28a); chain copies: 2; blunt

B1: Ms0535p2 (one IR mutated) (dsDNA)
DNA 1: CACACCGCCTTGCATGCATTCTCATGCATGGCCCGCGCTA
DNA 2: TAGCGCGGGCCATGCATGAGAATGCATGCAAGGCGGTGTG
binding result [1]: binds

B2: Ms0535p0 (dsDNA)
DNA 1: CACACCGCCTTGCATGCATTCTTGCATGCAAGGCGCGCTA
DNA 2: TAGCGCGCCTTGCATGCAAGAATGCATGCAAGGCGGTGTG
binding result [2]: binds

B3: Ms0535p1 (one IR mutated) (dsDNA)
DNA 1: CACACCGTTCCATGCATGTTCTTGCATGCAAGGCGCGCTA
DNA 2: TAGCGCGCCTTGCATGCAAGAACATGCATGGAACGGTGTG
binding result [1]: binds

B4: Ms0535p7 (both IRs mutated) (dsDNA)
DNA 1: CACACCGTTCCATGCATGTTCTCATGCATGGAACGCGCTA
DNA 2: TAGCGCGTTCCATGCATGAGAACATGCATGGAACGGTGTG
binding result [2]: no binding
